What all share (assay): FRET or BRET; FRET-FLIM in tobacco leaf epidermal cells, transient expression; GFP fusion as donor, mRFP fusion as acceptor; a reduction of the donor's lifetime of 0.2 ns or more is taken as energy transfer
For orientation: Bioluminescence resonance energy transfer reports proximity on the nanometre scale.

Assay [1] concerns the target CMV-3a-GFP (cauliflower mosaic virus in p-0009; cucumber mosaic virus in p-0012).
Assay [2] addresses TMV-30k-GFP (tobacco mosaic virus).
Assay [3] has as its target GFP-PVX-TGB2 (potato virus X).
Assay [4] deals with GFP-PMTV-TGB2 (potato mop-top virus).
Assay [5] concerns the target T1, GFP-RTN3 (Arabidopsis thaliana), Q9SH59.
T1 chain: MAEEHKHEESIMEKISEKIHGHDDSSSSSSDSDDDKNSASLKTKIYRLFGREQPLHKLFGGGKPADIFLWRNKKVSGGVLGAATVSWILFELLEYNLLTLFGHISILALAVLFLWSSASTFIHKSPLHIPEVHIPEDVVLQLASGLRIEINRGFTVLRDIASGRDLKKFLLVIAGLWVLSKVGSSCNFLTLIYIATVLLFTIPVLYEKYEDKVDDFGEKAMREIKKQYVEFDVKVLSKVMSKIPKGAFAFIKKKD
The following applies: remark: other sources report otherwise.

B1: mRFP-RTN3 (natural protein)
chain: T1 chain
Regarding B1, the average GFP fluorescence lifetime of the donor with the acceptor in assay [1] stood at 2.05 ns; in assay [2], 2.09 ns; in assay [3], 2.07 ns; in assay [4] it was 2.12 ns. Moreover, the reduction of the GFP lifetime against the donor alone (Δ) is 0.32 ns in assay [1], 0.31 ns in assay [2], 0.32 ns in assay [3] and 0.29 ns in assay [4].

B2: mRFP-RTN6 (natural protein)
chain: MAEELEKSMHKEESLMEKIADKIHDHDSSSSSDSEHEKPESPSALKAKIYRLFGREKPVHKVLGGGLPADVFLWRDKKLSASVLGVATAIWVLFELVEYHFLSLVCHILIFALAALFLLSNAHAFMNKTPPKIPEIHIKEEHFLMIVSALRNELNQAFVILRSIALGRDLKKFLMVVFGLWIISVVGNWFNFLTLVYICFVVLHTVPMLYEKHEDKVDPVAEKTLKELKKHYMVFDEKVLSKLPVASLKAKLG
As for B2, the average GFP fluorescence lifetime of the donor with the acceptor worked out at 2.04 ns in assay [1], 2.08 ns in assay [2], 2.08 ns in assay [3] and 2.19 ns in assay [4]. The reduction of the GFP lifetime against the donor alone (Δ) in assay [1] was determined as 0.33 ns; in assay [2], 0.32 ns; in assay [3], 0.31 ns; in assay [4], 0.22 ns.

B3: mRFP-RTN6, Q6DBN4 1-253 (natural protein)
chain: B2 chain
In assay [5], B3 came in with an average GFP fluorescence lifetime of the donor with the acceptor of 2.2 ns and a reduction of the GFP lifetime against the donor alone (Δ) of 0.22 ns.
